Measurements: the supplement of paper PMC9233669
Fewer inactive variants are shown than the library holds.

Tests used:
biotinyl-Val-oxazolone = assay: self-aminoacylation, catalytic enhancement (BVO) (fold over background); higher = more active; k-Seq, kA / k0A0; sequences stand for … in GGGAAUGGAUCCACAUCUACGAAUUC…UUCACUGCAGACUUGACGAAGCUG
How it was run: (§1)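 Each biotinyl-aminoacyl-oxazolone, at 2–1250 μM, was incubated with mutagenized RNA pools (0.43 μM) carrying a 21-nt variable region. The 50 μL reactions contained HEPES/NaCl/KCl/MgCl2/CaCl2 buffer with 5% acetonitrile at pH 6.9–7.0 and ran for 90 minutes at room temperature. After streptavidin capture, RNA was measured by qPCR in triplicate and by Illumina sequencing, and catalytic enhancement was calculated as median kA over the uncatalyzed rate from a pseudo-first-order fit of per-sequence fraction reacted.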

biotinyl-Leu-oxazolone = assay: self-aminoacylation, catalytic enhancement (BLO) (fold over background); higher = more active; k-Seq, kA / k0A0; sequences stand for … in GGGAAUGGAUCCACAUCUACGAAUUC…UUCACUGCAGACUUGACGAAGCUG
How it was run: as §1

biotinyl-Met-oxazolone = assay: self-aminoacylation, catalytic enhancement (BMO) (fold over background); higher = more active; k-Seq, kA / k0A0; sequences stand for … in GGGAAUGGAUCCACAUCUACGAAUUC…UUCACUGCAGACUUGACGAAGCUG
How it was run: as §1

biotinyl-Ile-oxazolone = assay: self-aminoacylation, catalytic enhancement (BIO) (fold over background); higher = more active; k-Seq, kA / k0A0; sequences stand for … in GGGAAUGGAUCCACAUCUACGAAUUC…UUCACUGCAGACUUGACGAAGCUG
How it was run: as §1

biotinyl-Phe-oxazolone = assay: self-aminoacylation, catalytic enhancement (BFO) (fold over background); higher = more active; k-Seq, kA / k0A0; sequences stand for … in GGGAAUGGAUCCACAUCUACGAAUUC…UUCACUGCAGACUUGACGAAGCUG
How it was run: as §1

biotinyl-Trp-oxazolone = assay: self-aminoacylation, catalytic enhancement (BWO) (fold over background); higher = more active; k-Seq, kA / k0A0; sequences stand for … in GGGAAUGGAUCCACAUCUACGAAUUC…UUCACUGCAGACUUGACGAAGCUG
How it was run: as §1

Sequence | self-aminoacylation (biotinyl-Val-oxazolone) | self-aminoacylation (biotinyl-Leu-oxazolone) | self-aminoacylation (biotinyl-Met-oxazolone) | self-aminoacylation (biotinyl-Ile-oxazolone) | self-aminoacylation (biotinyl-Phe-oxazolone) | self-aminoacylation (biotinyl-Trp-oxazolone)
AUUACCCUGGUCUUCGAGUCA [Fam2.1 aminoacylation ribozyme variant] | 0.873 | 0.903 | 0.844 | 0.953 | 0.638 | 0.688
AUUACCCUGGUCUUCGAGUGG [Fam2.1 aminoacylation ribozyme variant] | 1.07 | 1.69 | 1.34 | 0.992 | 4.91 | 0.855
AUUACCCUGGUCUUCGCGUGA [Fam2.1 aminoacylation ribozyme variant] | 6.16 | 9.77 | 9.58 | 5.89 | 55.2 | 11.5
AUUACCCUGGUCUUCGUGUGA [Fam2.1 aminoacylation ribozyme variant] | 1.02 | 1.45 | 1.46 | 1.05 | 7.45 | 1.93
AUUACCCUGGUGAUCGCGUGA [Fam2.1 aminoacylation ribozyme variant] | 4.19 | 4.38 | 4.66 | 3.45 | 44.2 | 6.27
AUUACCCUGGUGCUCGAGUGA [Fam2.1 aminoacylation ribozyme variant] | 2.38 | 4.67 | 3.93 | 2.14 | 25 | 5.2
AUUACCCUGGUGUUCGAGUGA [Fam2.1 aminoacylation ribozyme variant] | 3.21 | 6.71 | 5.65 | 2.73 | 45.5 | 7.61
AUUACCCUGGUUAUCGAGUAA [Fam2.1 aminoacylation ribozyme variant] | 1.24 | 1.32 | 1.44 | 1.31 | 1.44 | 1.89
AUUACCCUGGUUAUCGAGUGA [Fam2.1 aminoacylation ribozyme variant] | 4.27 | 8.64 | 8.65 | 3.83 | 25.2 | 10.3
AUUACCCUGGUUAUCGGGUGA [Fam2.1 aminoacylation ribozyme variant] | 6.66 | 13.6 | 12.8 | 5.12 | 94.3 | 14.8
AUUACCCUGUUAAUCGAGUGA [Fam2.1 aminoacylation ribozyme variant] | 5.36 | 9.68 | 9.91 | 4.91 | 54.5 | 13.4
AUUACCCUGUUCACCGAGUGA [Fam2.1 aminoacylation ribozyme variant] | 5 | 11.6 | 11 | 4.79 | 77.2 | 12.7
AUUACCCUGUUCAUCCAGUGA [Fam2.1 aminoacylation ribozyme variant] | 3.52 | 5.85 | 5.95 | 3.76 | 23 | 8.43
AUUACCCUGUUCAUCGAGUGA [Fam2.1 aminoacylation ribozyme variant] | 3.22 | 5.44 | 5.57 | 2.97 | 16.6 | 7.34
AUUACCCUGUUCAUCGGGUGA [Fam2.1 aminoacylation ribozyme variant] | 5.19 | 9.74 | 9.44 | 4.92 | 64.2 | 12
AUUACCCUGUUCGUCGAGUGA [Fam2.1 aminoacylation ribozyme variant] | 1.2 | 0.865 | 0.885 | 1.15 | 0.834 | 1.44
AUUACCCUGUUCUUCGAGUGA [Fam2.1 aminoacylation ribozyme variant] | 3.41 | 5.58 | 5.6 | 3.05 | 23.3 | 7.83
AUUACCCUUAUCAUCGAGUGA [Fam2.1 aminoacylation ribozyme variant] | 6.51 | 13.2 | 14.1 | 5.68 | 60.8 | 16.7
AUUACCCUUGUCAUCAAGUGA [Fam2.1 aminoacylation ribozyme variant] | 2.77 | 4.43 | 4.86 | 2.2 | 12.5 | 6.3
AUUACCCUUGUCAUCUAGUGA [Fam2.1 aminoacylation ribozyme variant] | 3.81 | 7.22 | 7.09 | 3.76 | 26.5 | 8.68
AUUACCGAGGUCAUCGAGUGA [Fam2.1 aminoacylation ribozyme variant] | 4.64 | 8.4 | 6.93 | 3.99 | 38.1 | 10.8
AUUACCGCGGUCAUCGAGUGA [Fam2.1 aminoacylation ribozyme variant] | 3.11 | 6.47 | 5.86 | 3.36 | 36.1 | 7.16
AUUACCGUCGUCAUCGAGUGA [Fam2.1 aminoacylation ribozyme variant] | 2.3 | 3.42 | 3.23 | 2.36 | 8.91 | 3.88
AUUACCGUGAUCAUCGAGUGA [Fam2.1 aminoacylation ribozyme variant] | 4.34 | 8.78 | 9.07 | 4.18 | 44.9 | 10.5
AUUACCGUGGACAUCGAGUGA [Fam2.1 aminoacylation ribozyme variant] | 2.68 | 3.92 | 3.47 | 2.29 | 3.62 | 5.62
AUUACCGUGGCCAUCGAGUGA [Fam2.1 aminoacylation ribozyme variant] | 3.89 | 5.84 | 4.71 | 3.2 | 32.8 | 8.11

Sequence | self-aminoacylation (biotinyl-Val-oxazolone) | self-aminoacylation (biotinyl-Leu-oxazolone) | self-aminoacylation (biotinyl-Met-oxazolone) | self-aminoacylation (biotinyl-Ile-oxazolone) | self-aminoacylation (biotinyl-Phe-oxazolone) | self-aminoacylation (biotinyl-Trp-oxazolone)
AUUACCGUGGUAAUCGAGUGA [Fam2.1 aminoacylation ribozyme variant] | 4.18 | 9.2 | 8.54 | 3.63 | 43.2 | 9.95
AUUACCGUGGUCAACGAGUGA [Fam2.1 aminoacylation ribozyme variant] | 4.21 | 7.25 | 6.41 | 3.61 | 36.7 | 9.2
AUUACCGUGGUCAUCGAGUGG [Fam2.1 aminoacylation ribozyme variant] | 1.33 | 1.81 | 1.85 | 1.27 | 7.04 | 1.72
AUUACCGUGGUCAUCGAGUGU [Fam2.1 aminoacylation ribozyme variant] | 2.46 | 3.51 | 3.17 | 1.89 | 12.9 | 4.27
AUUACCGUGGUCCUCGAGUGA [Fam2.1 aminoacylation ribozyme variant] | 3.69 | 4.19 | 4.11 | 2.57 | 29.2 | 4.82
AUUACCGUGGUUAUCGAGUGA [Fam2.1 aminoacylation ribozyme variant] | 5.1 | 10.4 | 10.7 | 4.22 | 59.4 | 11.4
AUUACCUUGGUCAUCGAGUCA [Fam2.1 aminoacylation ribozyme variant] | 0.81 | 0.786 | 0.691 | 0.854 | 0.473 | 0.599
AUUACCUUGGUCAUCGAGUGA [Fam2.1 aminoacylation ribozyme variant] | 3.88 | 6.89 | 6.66 | 3.7 | 7.72 | 8.16
AUUACCUUGGUCAUCGAGUUA [Fam2.1 aminoacylation ribozyme variant] | 1.03 | 0.814 | 1.19 | 1.18 | 0.913 | 0.524
AUUACGAUGGUCAUCGAGUGA [Fam2.1 aminoacylation ribozyme variant] | 3.17 | 4.54 | 3.43 | 2.99 | 12.3 | 4.79
AUUACGCUGGUAAUCGAGUGA [Fam2.1 aminoacylation ribozyme variant] | 2.77 | 5.76 | 5.48 | 2.84 | 18.7 | 7.02
AUUACGCUGGUCAUCGAGAGA [Fam2.1 aminoacylation ribozyme variant] | 1.73 | 1.42 | 1.44 | 1.21 | 1.36 | 1.59
AUUACGCUGGUCAUCGAGUGA [Fam2.1 aminoacylation ribozyme variant] | 3.23 | 4.69 | 4.57 | 3.16 | 16.1 | 5.76
AUUACGCUGGUCAUCGUGUGA [Fam2.1 aminoacylation ribozyme variant] | 1.6 | 2.59 | 2.48 | 1.62 | 15.4 | 3
AUUACGCUGGUCAUGGAGUGA [Fam2.1 aminoacylation ribozyme variant] | 2.39 | 2.76 | 2.67 | 2.29 | 5.28 | 3.44
AUUACGCUGGUCAUUGAGUGA [Fam2.1 aminoacylation ribozyme variant] | 3 | 5.87 | 5.32 | 3.29 | 21.2 | 6.92
AUUACGCUGGUCCUCGAGUGA [Fam2.1 aminoacylation ribozyme variant] | 4.14 | 6.05 | 6.22 | 4.15 | 44.8 | 6.54
AUUACGCUGGUCUUCGAGUGA [Fam2.1 aminoacylation ribozyme variant] | 3.32 | 5.46 | 4.27 | 3.35 | 12.9 | 5.95
AUUACGCUGGUGAUCGAGUGA [Fam2.1 aminoacylation ribozyme variant] | 2.59 | 5.37 | 4.44 | 2.89 | 25.3 | 5.45
AUUACGGUGGUCAUCGAGUGA [Fam2.1 aminoacylation ribozyme variant] | 2.09 | 2.56 | 2.68 | 2.44 | 5.75 | 3.24
AUUACUAUGGUCAUCGAGUGA [Fam2.1 aminoacylation ribozyme variant] | 3.31 | 6.66 | 6.37 | 3.32 | 22.6 | 8.33
AUUACUCGGGUCAUCGAGUGA [Fam2.1 aminoacylation ribozyme variant] | 3.33 | 8.09 | 6.51 | 3.66 | 28.6 | 6.64
AUUACUCUCGUCAUCGAGUGA [Fam2.1 aminoacylation ribozyme variant] | 2.09 | 3.39 | 2.92 | 2.11 | 8.87 | 4.11
AUUACUCUGGUCAUCGAAUGA [Fam2.1 aminoacylation ribozyme variant] | 1.09 | 1.3 | 1.45 | 1.19 | 0.918 | 0.832
AUUACUCUGGUCAUCGAGUGC [Fam2.1 aminoacylation ribozyme variant] | 1.05 | 1.42 | 1.19 | 1.1 | 0.969 | 1.32
